Measured values from paper PMC9482650, “Quantitative fragmentomics allow affinity mapping of interactomes” (Nature Communications, 2022).

B1: NRXN3, Q9HDB5 (peptide)
chain: QKNKDREYYV

Each binder was assayed against T1, TIAM2, Q8IVF5 (assay: holdup assay). Details: plain residues with an end cap or a label only (N-terminal biotin on a linker: ado-ado).
T1 sequence (Q8IVF5 885-986, limits assumed, looked up): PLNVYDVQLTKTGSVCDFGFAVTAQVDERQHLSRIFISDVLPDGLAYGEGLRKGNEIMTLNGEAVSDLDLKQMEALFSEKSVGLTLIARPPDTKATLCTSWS
Design: key: below the threshold = too weak to quantify, mostly under pKd 3.1 to 4
Binder B1 has a pKd of 4.41.

These binders were tested against T2, FRMPD1, Q5SYB0 (assay: holdup assay). Details: plain residues with an end cap or a label only (N-terminal biotin on a linker: ado-ado).
T2 sequence (Q5SYB0 52-145, limits assumed, looked up): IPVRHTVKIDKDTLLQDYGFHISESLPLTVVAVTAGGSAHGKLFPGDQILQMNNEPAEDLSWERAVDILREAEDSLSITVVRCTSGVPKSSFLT
Design: key: below the threshold = too weak to quantify, mostly under pKd 3.1 to 4
With B1 the pKd was “below the threshold”.

The binders below were run against T3, CARD11, Q9BXL7 (assay: holdup assay). Details: plain residues with an end cap or a label only (N-terminal biotin on a linker: ado-ado).
T3 sequence (Q9BXL7 662-765, limits assumed, looked up): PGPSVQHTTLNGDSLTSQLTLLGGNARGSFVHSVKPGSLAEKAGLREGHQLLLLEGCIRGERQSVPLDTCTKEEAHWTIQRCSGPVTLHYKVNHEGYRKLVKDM
Design: key: below the threshold = too weak to quantify, mostly under pKd 3.1 to 4
For B1, the pKd was “below the threshold”.

These binders were tested against T4, NHERF3_3, Q5T2W1 (assay: holdup assay). Details: plain residues with an end cap or a label only (N-terminal biotin on a linker: ado-ado).
T4 sequence (Q5T2W1 238-333, limits assumed, looked up): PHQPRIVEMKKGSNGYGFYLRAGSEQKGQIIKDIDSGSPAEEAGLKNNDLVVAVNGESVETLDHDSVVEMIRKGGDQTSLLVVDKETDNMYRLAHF
Design: key: below the threshold = too weak to quantify, mostly under pKd 3.1 to 4
For B1, the pKd was “below the threshold”.

These binders were tested against TJP1_2, Q07157 (assay: holdup assay). Details: plain residues with an end cap or a label only (N-terminal biotin on a linker: ado-ado).
Chain of TJP1_2, Q07157 (Q07157 181-274): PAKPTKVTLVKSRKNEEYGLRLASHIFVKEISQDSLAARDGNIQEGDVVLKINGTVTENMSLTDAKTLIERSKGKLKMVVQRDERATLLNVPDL
Design: key: below the threshold = too weak to quantify, mostly under pKd 3.1 to 4
Work on B1 yielded a pKd of 3.57.

Each binder was assayed against Inadl_3, Q8NI35 (assay: holdup assay). Details: plain residues with an end cap or a label only (N-terminal biotin on a linker: ado-ado).
Chain of Inadl_3, Q8NI35 (Q8NI35 359-469): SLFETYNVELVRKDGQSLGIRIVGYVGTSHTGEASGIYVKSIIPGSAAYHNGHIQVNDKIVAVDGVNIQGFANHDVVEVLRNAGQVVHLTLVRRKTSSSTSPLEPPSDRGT
Design: key: below the threshold = too weak to quantify, mostly under pKd 3.1 to 4
B1 was tested, and the pKd was 4.14.

The binders below were run against T5, LNX2_2, Q8N448 (assay: holdup assay). Details: plain residues with an end cap or a label only (N-terminal biotin on a linker: ado-ado).
T5 sequence (Q8N448 334-432, limits assumed, looked up): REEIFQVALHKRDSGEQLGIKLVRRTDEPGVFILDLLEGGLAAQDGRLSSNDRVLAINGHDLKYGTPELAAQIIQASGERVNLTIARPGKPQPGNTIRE
Design: key: below the threshold = too weak to quantify, mostly under pKd 3.1 to 4
B1 showed a pKd of 4.81.

What follows are binders tested against GRIP2_3, Q9C0E4 (assay: holdup assay). Details: plain residues with an end cap or a label only (N-terminal biotin on a linker: ado-ado).
Chain of GRIP2_3, Q9C0E4 (Q9C0E4 238-339): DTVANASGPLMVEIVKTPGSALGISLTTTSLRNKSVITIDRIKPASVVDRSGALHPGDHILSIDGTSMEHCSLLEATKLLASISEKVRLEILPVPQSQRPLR
Design: key: below the threshold = too weak to quantify, mostly under pKd 3.1 to 4
In the case of B1, the pKd is reported as “below the threshold”.

What follows are binders tested against T6, APBA2_2, Q99767 (assay: holdup assay). Details: plain residues with an end cap or a label only (N-terminal biotin on a linker: ado-ado).
T6 sequence (Q99767 654-744, limits assumed, looked up): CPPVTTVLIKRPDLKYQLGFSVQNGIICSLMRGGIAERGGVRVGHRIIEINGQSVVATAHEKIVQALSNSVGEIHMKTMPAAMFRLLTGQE
Design: key: below the threshold = too weak to quantify, mostly under pKd 3.1 to 4
B1 was tested, and the pKd was “below the threshold”.

What follows are binders tested against T7, SNTG1, Q9NSN8 (assay: holdup assay). Details: plain residues with an end cap or a label only (N-terminal biotin on a linker: ado-ado).
T7 sequence (Q9NSN8 52-150, limits assumed, looked up): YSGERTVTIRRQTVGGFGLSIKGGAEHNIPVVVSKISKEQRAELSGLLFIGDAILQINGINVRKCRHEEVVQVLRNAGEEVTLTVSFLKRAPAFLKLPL
Design: key: below the threshold = too weak to quantify, mostly under pKd 3.1 to 4
In the case of B1, the pKd is reported as 3.58.

These binders were tested against T8, MPP7, Q5T2T1 (assay: holdup assay). Details: plain residues with an end cap or a label only (N-terminal biotin on a linker: ado-ado).
T8 sequence (Q5T2T1 134-230, limits assumed, looked up): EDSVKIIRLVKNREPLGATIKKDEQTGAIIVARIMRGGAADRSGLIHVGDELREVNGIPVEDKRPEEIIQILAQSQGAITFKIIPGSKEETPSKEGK
Design: key: below the threshold = too weak to quantify, mostly under pKd 3.1 to 4
B1 was tested, and the pKd was 4.92.

What follows are binders tested against T9, DVL3, Q92997 (assay: holdup assay). Details: plain residues with an end cap or a label only (N-terminal biotin on a linker: ado-ado).
T9 sequence (Q92997 244-331, limits assumed, looked up): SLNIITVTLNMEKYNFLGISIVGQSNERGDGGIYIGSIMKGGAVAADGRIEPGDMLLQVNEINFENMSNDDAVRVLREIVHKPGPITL
Design: key: below the threshold = too weak to quantify, mostly under pKd 3.1 to 4
B1 was tested, and the pKd was 4.02.

Each binder was assayed against LIMK2, P53671 (assay: holdup assay). Details: plain residues with an end cap or a label only (N-terminal biotin on a linker: ado-ado).
Chain of LIMK2, P53671 (P53671 143-248): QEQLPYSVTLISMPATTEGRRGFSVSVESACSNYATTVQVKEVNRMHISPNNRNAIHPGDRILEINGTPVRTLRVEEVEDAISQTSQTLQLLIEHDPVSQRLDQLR
Design: key: below the threshold = too weak to quantify, mostly under pKd 3.1 to 4
For B1, the pKd was “below the threshold”.

Each binder was assayed against ARHGEF12, Q9NZN5-2 (assay: holdup assay). Details: plain residues with an end cap or a label only (N-terminal biotin on a linker: ado-ado).
Chain of ARHGEF12, Q9NZN5-2 (Q9NZN5 other isoform, or with tags, fused parts or gaps): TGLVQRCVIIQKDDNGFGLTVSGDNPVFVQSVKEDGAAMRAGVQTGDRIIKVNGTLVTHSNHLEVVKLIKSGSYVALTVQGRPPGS
Design: key: below the threshold = too weak to quantify, mostly under pKd 3.1 to 4
Binder B1 has a pKd of 3.65.

What follows are binders tested against T10, GRIP1_7, Q9Y3R0 (assay: holdup assay). Details: plain residues with an end cap or a label only (N-terminal biotin on a linker: ado-ado).
T10 sequence (Q9Y3R0 999-1096, limits assumed, looked up): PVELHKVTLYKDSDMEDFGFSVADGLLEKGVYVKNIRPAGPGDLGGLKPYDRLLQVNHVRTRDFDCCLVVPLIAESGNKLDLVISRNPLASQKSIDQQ
Design: key: below the threshold = too weak to quantify, mostly under pKd 3.1 to 4
In the case of B1, the pKd is reported as 4.62.

These binders were tested against AHNAK1, Q09666 (assay: holdup assay). Details: plain residues with an end cap or a label only (N-terminal biotin on a linker: ado-ado).
Chain of AHNAK1, Q09666 (Q09666 4-100): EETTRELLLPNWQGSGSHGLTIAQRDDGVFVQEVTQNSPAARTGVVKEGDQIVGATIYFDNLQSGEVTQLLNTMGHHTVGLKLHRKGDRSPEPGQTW
Design: key: below the threshold = too weak to quantify, mostly under pKd 3.1 to 4
With B1 the pKd was “below the threshold”.

Each binder was assayed against T11, PDZD7_3, Q9H5P4 (assay: holdup assay). Details: plain residues with an end cap or a label only (N-terminal biotin on a linker: ado-ado).
T11 sequence (Q9H5P4 857-944, limits assumed, looked up): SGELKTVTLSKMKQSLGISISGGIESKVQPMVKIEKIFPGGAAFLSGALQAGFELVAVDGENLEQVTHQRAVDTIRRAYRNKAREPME
Design: key: below the threshold = too weak to quantify, mostly under pKd 3.1 to 4
For B1, the pKd was “below the threshold”.

Each binder was assayed against T12, APBA2_1, Q99767 (assay: holdup assay). Details: plain residues with an end cap or a label only (N-terminal biotin on a linker: ado-ado).
T12 sequence (Q99767 563-664, limits assumed, looked up): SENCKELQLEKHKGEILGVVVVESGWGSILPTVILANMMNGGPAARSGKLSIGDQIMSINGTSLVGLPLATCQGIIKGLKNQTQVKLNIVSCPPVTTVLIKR
Design: key: below the threshold = too weak to quantify, mostly under pKd 3.1 to 4
In the case of B1, the pKd is reported as “below the threshold”.

The binders below were run against SCRIB_1, Q14160 (assay: holdup assay). Details: plain residues with an end cap or a label only (N-terminal biotin on a linker: ado-ado).
Chain of SCRIB_1, Q14160 (Q14160 718-814): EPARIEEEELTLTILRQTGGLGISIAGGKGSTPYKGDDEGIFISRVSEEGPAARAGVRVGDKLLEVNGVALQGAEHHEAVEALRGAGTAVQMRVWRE
Design: key: below the threshold = too weak to quantify, mostly under pKd 3.1 to 4
With B1 the pKd was “below the threshold”.

What follows are binders tested against T13, HTRA4, P83105 (assay: holdup assay). Details: plain residues with an end cap or a label only (N-terminal biotin on a linker: ado-ado).
T13 sequence (P83105 378-476, limits assumed, looked up): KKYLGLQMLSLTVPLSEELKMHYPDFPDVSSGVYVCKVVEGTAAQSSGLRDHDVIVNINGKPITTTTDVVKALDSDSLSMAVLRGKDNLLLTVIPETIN
Design: key: below the threshold = too weak to quantify, mostly under pKd 3.1 to 4
For B1, the pKd was “below the threshold”.

Each binder was assayed against T14, MPDZ_12, O75970 (assay: holdup assay). Details: plain residues with an end cap or a label only (N-terminal biotin on a linker: ado-ado).
T14 sequence (O75970 1857-1958, limits assumed, looked up): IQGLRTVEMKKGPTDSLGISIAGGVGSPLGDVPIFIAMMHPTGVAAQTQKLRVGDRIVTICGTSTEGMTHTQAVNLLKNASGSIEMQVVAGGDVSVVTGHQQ
Design: key: below the threshold = too weak to quantify, mostly under pKd 3.1 to 4
B1 was tested, and the pKd was “below the threshold”.

Each binder was assayed against MAST2, Q6P0Q8 (assay: holdup assay). Details: plain residues with an end cap or a label only (N-terminal biotin on a linker: ado-ado).
Chain of MAST2, Q6P0Q8 (Q6P0Q8 1099-1202): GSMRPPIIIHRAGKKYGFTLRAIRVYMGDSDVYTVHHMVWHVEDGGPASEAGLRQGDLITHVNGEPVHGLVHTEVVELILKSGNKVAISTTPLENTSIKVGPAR
Design: key: below the threshold = too weak to quantify, mostly under pKd 3.1 to 4
For B1, the pKd was 3.77.

These binders were tested against T15, MPP2, Q14168 (assay: holdup assay). Details: plain residues with an end cap or a label only (N-terminal biotin on a linker: ado-ado).
T15 sequence (Q14168 180-250, limits assumed, looked up): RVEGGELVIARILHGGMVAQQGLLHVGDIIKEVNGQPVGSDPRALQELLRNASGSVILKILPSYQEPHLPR
Design: key: below the threshold = too weak to quantify, mostly under pKd 3.1 to 4
For B1, the pKd was 4.39.
